Assay results as given in the Immune Epitope Database (IEDB).

What was measured:
Assay in all cases: IEDB peptide-MHC binding, purified MHC/competitive/radioactivity; filed as Kd, often an IC50 or EC50 that approximates it; ≥ and ≤ were set here for values at or beyond the usual limits of such assays
[1] = biological target: HLA-A*03:01
[2] = biological target: HLA-A*68:01
[3] = biological target: HLA-A*11:01
[4] = biological target: HLA-A*31:01
[5] = biological target: HLA-A*33:01
[6] = source organism: Vaccinia virus WR
[7] = source organism: Mammarenavirus brazilense
[8] = source organism: Dengue virus 4 Philippines/H241/1956
[9] = source organism: Dengue virus 1 Brazil/97-11/1997
[10] = source organism: Dengue virus 3 Martinique/1243/1999
[11] = source organism: SARS coronavirus Tor2
[12] = source organism: Dengue virus 2 Jamaica/1409/1983
[13] = source organism: Dengue virus 4 Dominica/814669/1981
[14] = source organism: Mammarenavirus juninense
[15] = source organism: Lymphocytic choriomeningitis virus (strain Armstrong)
[16] = source organism: Dengue virus 2 Peru/IQT2913/1996

| Sequence | Kd [1, 6] [nM] | Kd [2, 6] [nM] | Kd [3, 6] [nM] | Kd [4, 6] [nM] | Kd [5, 6] [nM] | further results |
| --- | --- | --- | --- | --- | --- | --- |
| IMDKEQLLK | 10.2 | 1110 | 22 | 1130 | 6380 |  |
| ITGNNIILSK | 3.51 | 7.62 | 0.713 | 2460 | 2000 |  |
| IVSLCPTKK | 359 | 912 | 54.1 | 1610 | 7690 |  |
| KAGQNIRLSH |  |  |  |  |  | Kd [1, 7]: 1680 nM; Kd [2, 7]: ≥ 70100 nM; Kd [3, 7]: 12800 nM; Kd [4, 7]: 5260 nM; Kd [5, 7]: ≥ 70000 nM |
| KATLTEGVYR |  |  |  |  |  | Kd [4, 8]: 76 nM |
| KIFSEVTPK |  |  |  |  |  | Kd ([1]; source organism: Homo sapiens): 10 nM |
| KKNGAIKVLR |  |  |  |  |  | Kd [4, 9]: ≥ 70000 nM |
| KLDDVEKEK | 404 | ≥ 59900 | 292 | 4770 | ≥ 77700 |  |
| KLVKSLVDK | 34.5 | ≥ 77700 | 73.4 | ≥ 41300 | ≥ 77700 |  |
| KNKAWMVHR |  |  |  |  |  | Kd [4, 10]: 1.18 nM |
| KQIANQFNK |  |  |  |  |  | Kd [1, 11]: 108 nM; Kd [2, 11]: 9990 nM; Kd [3, 11]: 138 nM; Kd [4, 11]: 24.2 nM; Kd [5, 11]: ≥ 77700 nM |
| KSIIIPFIAY | 968 | 17600 | 249 | 1370 | ≥ 31700 |  |
| KSINKVYGR | 368 | 15.4 | 2.38 | 1.04 | 3410 |  |
| LFHGGEPIK | 719 | 5110 | 766 | ≥ 77900 | ≥ 77700 |  |
| LFYTFAISY | ≥ 48400 | ≥ 43300 | ≥ 20100 | ≥ 77900 | ≥ 77700 |  |
| LSEYETMVDY | 5270 | ≥ 70200 | 16000 | ≥ 70000 | ≥ 70000 |  |
| LTVCYVLTGR |  |  |  |  |  | Kd [2, 12]: 6.43 nM |
| LTYQNKVVR |  |  |  |  |  | Kd [2, 12]: 46.1 nM; Kd [4, 12]: 11.3 nM |
| LVKSYSLIR | 15600 | 816 | 1490 | 18.4 | 1690 |  |
| MLFTSTNDK | 5.47 | 26.2 | 20 | 18400 | ≥ 77700 |  |
| MQGAVDINR |  |  |  |  |  | Kd [1, 11]: ≥ 23100 nM; Kd [2, 11]: 344 nM; Kd [3, 11]: 631 nM; Kd [4, 11]: 412 nM; Kd [5, 11]: ≥ 37400 nM |
| MSTYGWNIVK |  |  |  |  |  | Kd [2, 10]: 6.17 nM |
| MTLMKGASR |  |  |  |  |  | Kd [2, 13]: 52.3 nM; Kd [4, 13]: 30.5 nM; Kd [5, 13]: 11.6 nM |

| Sequence | Kd [1, 6] [nM] | Kd [2, 6] [nM] | Kd [3, 6] [nM] | Kd [4, 6] [nM] | Kd [5, 6] [nM] | further results |
| --- | --- | --- | --- | --- | --- | --- |
| MVGLLSNSPH |  |  |  |  |  | Kd [1, 14]: ≥ 30000 nM; Kd [2, 14]: 661 nM; Kd [3, 14]: ≥ 41400 nM; Kd [4, 14]: 2890 nM; Kd [5, 14]: 4280 nM |
| NACSANNSHH |  |  |  |  |  | Kd [1, 15]: ≥ 70000 nM; Kd [2, 15]: 4710 nM; Kd [3, 15]: ≥ 69700 nM; Kd [4, 15]: ≥ 70000 nM; Kd [5, 15]: ≥ 70000 nM |
| NKKPRLCTR |  |  |  |  |  | Kd [5, 10]: 3910 nM |
| NMVSDTIMKR | 4180 | 92 | 120 | 307 | 827 |  |
| NSKYSYELY | ≥ 33000 | 10.2 | 10400 | ≥ 51100 | ≥ 46700 |  |
| NSSAVVDNK | 8230 | 44.1 | 195 | ≥ 30600 | ≥ 77700 |  |
| NTNLIKCSDH |  |  |  |  |  | Kd [4, 7]: ≥ 37500 nM; Kd [5, 7]: ≥ 60300 nM |
| NVFKAMETFK | 27.2 | 1.32 | 13.7 | 63 | 234 |  |
| PLFDFVNEK | 1940 | 222 | 413 | 1220 | 5520 |  |
| PLHILASNKK | 1480 | ≥ 21900 | 3420 | 7700 | ≥ 70000 |  |
| PMVIENGILK | 10200 | 292 | 216 | ≥ 24100 | ≥ 70000 |  |
| PVLKAMHDK | 645 | 2520 | 879 | ≥ 67400 | ≥ 77700 |  |
| QMWTLMYFHR |  |  |  |  |  | Kd [4, 12]: 1.86 nM; Kd [5, 12]: 35.3 nM |
| QVYFESFVR |  |  |  |  |  | Kd [3, 15]: 54.8 nM |
| RNKKPRLCTR |  |  |  |  |  | Kd [4, 10]: 92.6 nM |
| RVPSHLAHR |  |  |  |  |  | Kd [4, 10]: 0.845 nM |
| RVYADPMALK |  |  |  |  |  | Kd [1, 8]: 6.98 nM; Kd [2, 8]: 16.1 nM; Kd [3, 8]: 90.3 nM |
| SLRETACLGK |  |  |  |  |  | Kd [1, 9]: 8.06 nM |
| TIIGRRLQR |  |  |  |  |  | Kd [2, 8]: 617 nM; Kd [5, 8]: 416 nM |
| TMPLVMAWR |  |  |  |  |  | Kd [4, 8]: 8.48 nM; Kd [5, 8]: 6.43 nM |
| TVMAFHLTTR |  |  |  |  |  | Kd [2, 16]: 12.2 nM; Kd [3, 16]: 108 nM; Kd [4, 16]: 1.57 nM; Kd [5, 16]: 8.12 nM |
| VLAFITFLR |  |  |  |  |  | Kd [1, 8]: 267 nM; Kd [2, 8]: 8.39 nM; Kd [4, 8]: 4.41 nM; Kd [5, 8]: 70.4 nM |
| YFWQKKKQR |  |  |  |  |  | Kd [4, 9]: 2220 nM; Kd [5, 9]: 98.2 nM |
